{"source": "paper PMC2738593", "about": "(Nature methods, 2009)", "proteins": {"B1": {"name": "cysteine-less HCN2I fragment (carboxyl-terminal region of mouse HCN2, C-linker and CNBD, residues 443-640) (domain or fragment, UniProt O88703 443-640, looked up)", "chain": "DSSRRQYQEKYKQVEQYMSFHKLPADFRQKIHDYYEHRYQGKMFDEDSILGELNGPLREEIVNFNNRKLVASMPLFANADPNFVTAMLTKLKFEVFQPGDYIIREGTIGKKMYFIQHGVVSVLTKGNKEMKLSDGSYFGEISLLTRGRRTASVRADTYSRLYSLSVDNFNEVLEEYPMMRRAFETVAIDRLDRIGKKN"}, "B2": {"name": "wild-type mouse HCN2I construct (carboxyl-terminal fragment of HCN2, C-linker and CNBD, residues 443-640) (domain or fragment, UniProt O88703 443-640, looked up)", "chain": "B1 chain with N66C, S142C, S159C"}}, "key": {"[1]": {"target": "the molecule itself", "test": "crystal structure"}, "[2]": {"target": "the molecule itself", "test": "crystal structure", "remark": "listed apart in the source"}}, "note": "Residue numbers refer to the chain shown, from its start. Like-named read-outs stand apart in the source and are kept apart here."}
{"protein": "B1", "values": [{"measurement": "stoichiometry N", "setting": "[1]", "value": 4}]}
{"protein": "B2", "values": [{"measurement": "stoichiometry N", "setting": "[2]", "value": 4}]}
